These results are taken from paper PMC3281585 (Science (New York, N.Y.), 2011).

The chains are these.
B2: gp44 protein of the T4 clamp loader (natural protein, bacteriophage T4)
chain: MITVNEKEHILEQKYRPSTIDECILPAFDKETFKSITSKGKIPHIILHSPSPGTGKTTVAKALCHDVNADMMFVNGSDCKIDFVRGPLTNFASAASFDGRQKVIVIDEFDRSGLAESQRHLRSFMEAYSSNCSIIITANNIDGIIKPLQSRCRVITFGQPTDEDKIEMMKQMIRRLTEICKHEGIAIADMKVVAALVKKNFPDFRKTIGELDSYSSKGVLDAGILSLVTNDRGAIDDVLESLKNKDVKQLRALAPKYAADYSWFVGKLAEEIYSRVTPQSIIRMYEIVGENNQYHGIAANTELHLAYLFIQLACEMQWK

Data set [1] deals with B2. Kind of data set: crystal structure.
Data set [2] concerns the molecule itself. Kind of data set: crystal structure.

B1: gp62 protein of the T4 clamp loader (natural protein, bacteriophage T4)
chain: SLFKDDIQLNEHQVAWYSKDWTAVQSAADSFKEKAENEFFEIIGAINNKTKCSIAQKDYSKFMVENALSQFPECMPAVYAMNLIGSGLSDEAHFNYLMAAVPRGKRYGKWAKLVEDSTEVLIIKLLAKRYQVNTNDAINYKSILTKNGKLPLVLKELKGLVTDDFLKEVTKNVKEQKQLKKLALEW
B1: in data set [1], the binding result was “binds”.

Turning to B2, the binding result in data set [2] is on record as “binds”.
